Laboratory results: patent US20180306789A1 (published 2018)

T1: WRN-002 (peptide code; source protein not spelled out) peptide on HLA-A*02:01 (human)
T1 peptide: ILQDLQPFL

T2: AHR-002 (peptide code; source protein not spelled out) peptide on HLA-A*02:01 (human)
T2 peptide: NLQEGEFLL

T3: VPS39-001 (peptide code; source protein not spelled out) peptide on HLA-A*02:01 (human)
T3 peptide: LLQDKQFEL

T4: MUC-009 (peptide code; source protein not spelled out) peptide on HLA-A*02:01 (human)
T4 peptide: ILQEGTFKA

T5: GRB14-002 (peptide code; source protein not spelled out) peptide on HLA-A*02:01 (human)
T5 peptide: GLVDGVFLV

T6: GSTA4-001 (peptide code; source protein not spelled out) peptide on HLA-A*02:01 (human)
T6 peptide: KLQDGNHLL

T7: PFN1-001 (peptide code; source protein not spelled out) peptide on HLA-A*02:01 (human)
T7 peptide: LLQDGEFSM

T8: SNR-004 (peptide code; source protein not spelled out) peptide on HLA-A*02:01 (human)
T8 peptide: ILQDGRIFI

T9: KCM-001 (peptide code; source protein not spelled out) peptide on HLA-A*02:01 (human)
T9 peptide: TLQNSQFLL

T10: VPS51-001 (peptide code; source protein not spelled out) peptide on HLA-A*02:01 (human)
T10 peptide: TLTDEQFLV

T11: DDB1 and CUL4 associated factor 4-like 2 (DCAF4L2); peptide DCAF4L2-001 peptide on HLA-A*02:01 (human)
T11 peptide: ILQDGQFLV


How the values were obtained:
[1] = target: T1, WRN-002 (peptide code; source protein …); experiment: cytokine release
[2] = target: T2, AHR-002 (peptide code; source protein …); experiment: cytokine release
[3] = target: T3, VPS39-001 (peptide code; source protein …); experiment: cytokine release
[4] = target: T4, MUC-009 (peptide code; source protein …); experiment: cytokine release
[5] = target: T5, GRB14-002 (peptide code; source protein …); experiment: cytokine release
[6] = target: T6, GSTA4-001 (peptide code; source protein …); experiment: cytokine release
[7] = target: T7, PFN1-001 (peptide code; source protein …); experiment: cytokine release
[8] = target: T8, SNR-004 (peptide code; source protein …); experiment: cytokine release
[9] = target: T9, KCM-001 (peptide code; source protein …); experiment: cytokine release
[10] = target: T10, VPS51-001 (peptide code; source protein …); experiment: cytokine release
[11] = target: T11, DDB1 and CUL4 associated factor 4-like …; experiment: multimer staining

| binding result [1] | binding result [2] | binding result [3] | binding result [4] | binding result [5] | binding result [6] | binding result [7] | binding result [8] | binding result [9] | binding result [10] | binding result [11] | Binder |
| --- | --- | --- | --- | --- | --- | --- | --- | --- | --- | --- | --- |
| no recognition | no recognition | no recognition | no recognition | no recognition | no recognition | no recognition | no recognition | no recognition | no recognition | recognises | R36P3F9 (TCR, V domains shown) Valpha: SQQGEEDPQALSIQEGENATMNCSYKTSINNLQWYRQNSGRGLVHLILIRSNEREKHSGRLRVTLDTSKKSSSLLITASRAADTASYFCATVSNYQLIWGAGTKLIIKP Vbeta: EAQVTQNPRYLITVTGKKLTVTCSQNMNHEYMSWYRQDPGLGLRQIYYSMNVEVTDKGDVPEGYKVSRKEKRNFPLILESPSPNQTSLYFCASSSTSGGLSGETQYFGPGTRLLVL |
| no recognition | no recognition | no recognition | no recognition | no recognition | no recognition | no recognition | no recognition | no recognition | no recognition | recognises | R52P2G11 (TCR, V domains shown) Valpha: KNQVEQSPQSLIILEGKNCTLQCNYTVSPFSNLRWYKQDTGRGPVSLTIMTFSENTKSNGRYTATLDADTKQSSLHITASQLSDSASYICVVSAYGKLQFGAGTQVVVTP Vbeta: DAGVIQSPRHEVTEMGQEVTLRCKPISGHNSLFWYRQTMMRGLELLIYFNNNVPIDDSGMPEDRFSAKMPNASFSTLKIQPSEPRDSAVYFCASSLGSPDGNQPQHFGDGTRLSIL |
| no recognition | no recognition | no recognition | no recognition | no recognition | no recognition | no recognition | no recognition | no recognition | no recognition | recognises | R53P2A9 (TCR, V domains shown) Valpha: AQTVTQSQPEMSVQEAETVTLSCTYDTSESDYYLFWYKQPPSRQMILVIRQEAYKQQNATENRFSVNFQKAAKSFSLKISDSQLGDAAMYFCAYNSYAGGTSYGKLTFGQGTILTVHP Vbeta: DAGVTQSPTHLIKTRGQQVTLRCSPISGHKSVSWYQQVLGQGPQFIFQYYEKEERGRGNFPDRFSARQFPNYSSELNVNALLLGDSALYLCASSLDGTSEQYFGPGTRLTVT |
